Assay results taken from US20160185837A1 (Medimmune Limited, priority 2013, published 2016).
Read-outs that look alike come from different tables or passages of the source.

Legend:
Format in all cases: cell-based
[1] = molecular target: T1, human GLP-1 receptor (hGLP-1r) (Homo sapiens, UniProt P43220); assay: BSA-cAMP assay, cells expressing human GLP-1 receptor; conditions: BSA-cAMP assay
T1 construct: expressed in transfected cells
Protocol: (§1) One basic cAMP assays was performed, differing in the medium used for the assay, the “BSA-cAMP assay”:
(§2) BSA-based assay medium: 0.1% bovine serum albumin (BSA) in
(§3) In certain aspects, the assay can also be carried out in medium supplemented with serum albumin that corresponds to the receptor being tested, e.g., human serum albumin for testing cAMP activity at hGIPr or hGLP-1r, rat serum albumin for testing cAMP activity at rGIPr or rGLP-1r, and so on. […] All sample dilutions were made in duplicate.
(§4) A frozen cryo-vial of cells expressing the receptor of interest was thawed rapidly in a water-bath, transferred to pre-warmed assay media and spun at 240×g for 5 minutes. Cells were re-suspended in assay buffer at an optimized concentration (e.g., hGLP-1r and hGIPr cells at 0.5×10^5 cells/ml).
(§5) To this, 5 μL cell suspension was added and the plates incubated at room temperature for 30 minutes.
(§6) cAMP levels were measured using a commercially available cAMP dynamic 2 HTRF kit (Cisbio, Cat #62AM4PEJ), following the two step protocol as per manufacturer's recommendations. In brief; anti-cAMP cryptate (donor fluorophore) and cAMP-d2 (acceptor fluorophore) were made up separately by diluting each 1/20 in conjugate & lysis buffer provided in the kit. 5 μL anti-cAMP cryptate was added to all wells of the assay plate, and 5 μL cAMP-d2 added to all wells except non-specific binding (NSB) wells, to which conjugate and lysis buffer was added. […] Data was transformed to % Delta F as described in manufacturer's guidelines and then transformed to percent activation of maximal native agonist response and analysed by 4-parameter logistic fit to determine EC50 values.
(§7) We used unconstrained 4 parameter logistic fit of data, curve mid-point to determine EC50. This was tested on two occasions, not two batches.

[2] = molecular target: T2, human GIP receptor (hGIPr) (Homo sapiens, UniProt P48546); assay: BSA-cAMP assay, cells expressing human GIP receptor; conditions: BSA-cAMP assay
T2 construct: expressed in transfected cells
T2 sequence (P48546 22-466): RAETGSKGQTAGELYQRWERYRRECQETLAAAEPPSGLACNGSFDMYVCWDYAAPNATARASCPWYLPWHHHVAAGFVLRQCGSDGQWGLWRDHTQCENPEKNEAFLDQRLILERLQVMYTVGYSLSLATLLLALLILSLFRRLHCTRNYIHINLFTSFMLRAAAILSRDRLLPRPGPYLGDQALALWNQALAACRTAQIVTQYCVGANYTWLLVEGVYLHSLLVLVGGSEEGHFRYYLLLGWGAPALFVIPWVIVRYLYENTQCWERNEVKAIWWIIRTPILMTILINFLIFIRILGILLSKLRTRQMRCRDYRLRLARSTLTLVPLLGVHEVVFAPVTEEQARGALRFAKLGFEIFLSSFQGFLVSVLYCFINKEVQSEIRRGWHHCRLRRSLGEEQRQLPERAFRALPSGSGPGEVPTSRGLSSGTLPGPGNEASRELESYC
Protocol: For human GIPr, two different lines were used, shown as “hGIPr” and “hGIPr (C3)” in Table 11.
as §1, §2, §3, §4, §5, §6, §7

[3] = molecular target: T3, human glucagon receptor (GCGr) (Homo sapiens, UniProt P47871); assay: BSA-cAMP assay, cells expressing human glucagon receptor
T3 construct: expressed in transfected cells; host or cells: HEK293s or CHO cells
Protocol: as §1, §2, §3, §4, §5, §6, §7

[4] = molecular target: T4, mouse GLP-1 receptor (mGLP-1r) (Mus musculus, UniProt O35659); assay: BSA-cAMP assay, cells expressing mouse GLP-1 receptor; conditions: BSA-cAMP assay
T4 construct: expressed in transfected cells; host or cells: HEK293s or CHO cells
T4 sequence (O35659 22-463): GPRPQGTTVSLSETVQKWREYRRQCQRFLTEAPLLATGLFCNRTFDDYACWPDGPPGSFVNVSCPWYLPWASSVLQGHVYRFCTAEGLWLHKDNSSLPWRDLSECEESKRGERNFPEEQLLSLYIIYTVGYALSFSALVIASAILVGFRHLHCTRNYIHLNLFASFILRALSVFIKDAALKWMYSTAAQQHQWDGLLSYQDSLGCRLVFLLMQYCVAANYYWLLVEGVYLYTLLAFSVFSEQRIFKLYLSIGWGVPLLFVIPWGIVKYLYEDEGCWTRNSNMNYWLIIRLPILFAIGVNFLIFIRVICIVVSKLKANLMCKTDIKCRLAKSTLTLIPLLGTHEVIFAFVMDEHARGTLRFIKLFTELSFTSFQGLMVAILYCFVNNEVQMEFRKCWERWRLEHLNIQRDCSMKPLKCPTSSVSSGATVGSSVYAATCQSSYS
Protocol: as §1, §2, §3, §4, §5, §6, §7
(§8) In order to be able to carry out in vivo studies in rodents, IP088 was tested for potency against the mouse receptors mGIPr and mGLP-1r as well as the rat receptors rGIPr and rGLP-1r, using cells expressing the respective receptors in the cAMP assay described above.

[5] = molecular target: T5, mouse GIP receptor (mGIPr) (Mus musculus, UniProt Q0P543); assay: BSA-cAMP assay, cells expressing mouse GIP receptor; conditions: BSA-cAMP assay
T5 construct: expressed in transfected cells; host or cells: HEK293s or CHO cells
T5 sequence (Q0P543 19-460): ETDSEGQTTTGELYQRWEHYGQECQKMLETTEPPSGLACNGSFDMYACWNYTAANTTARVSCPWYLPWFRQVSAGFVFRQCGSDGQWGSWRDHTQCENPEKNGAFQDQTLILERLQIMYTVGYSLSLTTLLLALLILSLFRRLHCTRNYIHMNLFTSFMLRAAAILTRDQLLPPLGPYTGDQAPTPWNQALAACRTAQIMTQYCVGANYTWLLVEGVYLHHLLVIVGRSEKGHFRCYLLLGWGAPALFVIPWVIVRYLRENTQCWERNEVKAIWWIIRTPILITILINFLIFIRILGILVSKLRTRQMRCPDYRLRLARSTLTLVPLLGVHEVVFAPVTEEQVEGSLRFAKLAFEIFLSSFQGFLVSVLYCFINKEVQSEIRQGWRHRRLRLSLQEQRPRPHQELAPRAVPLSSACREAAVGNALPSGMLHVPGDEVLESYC
Protocol: as §1, §2, §3, §4, §5, §6, §7, §8

[6] = molecular target: T6, rat GLP-1 receptor (rGLP-1r) (Rattus norvegicus, UniProt P32301); assay: BSA-cAMP assay, cells expressing rat GLP-1 receptor; conditions: BSA-cAMP assay
T6 construct: expressed in transfected cells; host or cells: HEK293s or CHO cells
T6 sequence (P32301 22-463): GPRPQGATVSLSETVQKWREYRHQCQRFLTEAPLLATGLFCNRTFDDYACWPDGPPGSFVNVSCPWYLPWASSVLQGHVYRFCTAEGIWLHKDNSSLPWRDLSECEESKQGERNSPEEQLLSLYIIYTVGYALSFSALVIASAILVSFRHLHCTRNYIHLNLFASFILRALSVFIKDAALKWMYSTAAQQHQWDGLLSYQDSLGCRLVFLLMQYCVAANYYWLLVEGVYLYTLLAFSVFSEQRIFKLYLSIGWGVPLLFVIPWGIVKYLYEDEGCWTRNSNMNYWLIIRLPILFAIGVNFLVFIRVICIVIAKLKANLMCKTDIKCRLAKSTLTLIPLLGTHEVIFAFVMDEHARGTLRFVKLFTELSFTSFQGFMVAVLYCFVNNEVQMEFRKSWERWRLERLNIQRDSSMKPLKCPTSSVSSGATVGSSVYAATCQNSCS
Protocol: as §1, §2, §3, §4, §5, §6, §7, §8

rat GIP receptor (rGIPr) = molecular target: T7, rat GIP receptor (rGIPr) (Rattus norvegicus, UniProt P43219); assay: BSA-cAMP assay, cells expressing rat GIP receptor; conditions: BSA-cAMP assay
T7 construct: expressed in transfected cells; host or cells: HEK293s or CHO cells
T7 sequence (P43219 19-455): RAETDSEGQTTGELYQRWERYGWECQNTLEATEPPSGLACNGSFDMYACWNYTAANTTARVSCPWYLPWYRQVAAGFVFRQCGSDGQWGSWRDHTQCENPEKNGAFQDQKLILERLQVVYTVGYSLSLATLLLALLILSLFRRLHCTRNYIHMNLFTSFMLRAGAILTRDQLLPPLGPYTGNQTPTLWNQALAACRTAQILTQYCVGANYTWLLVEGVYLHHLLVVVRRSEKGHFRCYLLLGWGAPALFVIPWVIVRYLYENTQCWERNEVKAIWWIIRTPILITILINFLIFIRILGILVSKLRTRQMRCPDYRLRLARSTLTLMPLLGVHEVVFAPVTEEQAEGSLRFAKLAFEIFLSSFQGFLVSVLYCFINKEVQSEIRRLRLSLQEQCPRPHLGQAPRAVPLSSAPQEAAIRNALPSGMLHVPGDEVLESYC
Protocol: as §1, §2, §3, §4, §5, §6, §7, §8

[7] = Batch 1, read-out: hGLP1r cAMP activity EC50
[8] = Batch 1, read-out: hGIPr cAMP activity EC50
[9] = Batch 1, read-out: hGCGr cAMP activity EC50
[10] = Batch 1, read-out: mGLP1r cAMP activity EC50
[11] = Batch 1, read-out: mGIPr cAMP activity EC50
[12] = Batch 1, read-out: rGLP1r cAMP activity EC50
[13] = Batch 1, read-out: rGIPr cAMP activity EC50

T1 sequence (P43220 24-463): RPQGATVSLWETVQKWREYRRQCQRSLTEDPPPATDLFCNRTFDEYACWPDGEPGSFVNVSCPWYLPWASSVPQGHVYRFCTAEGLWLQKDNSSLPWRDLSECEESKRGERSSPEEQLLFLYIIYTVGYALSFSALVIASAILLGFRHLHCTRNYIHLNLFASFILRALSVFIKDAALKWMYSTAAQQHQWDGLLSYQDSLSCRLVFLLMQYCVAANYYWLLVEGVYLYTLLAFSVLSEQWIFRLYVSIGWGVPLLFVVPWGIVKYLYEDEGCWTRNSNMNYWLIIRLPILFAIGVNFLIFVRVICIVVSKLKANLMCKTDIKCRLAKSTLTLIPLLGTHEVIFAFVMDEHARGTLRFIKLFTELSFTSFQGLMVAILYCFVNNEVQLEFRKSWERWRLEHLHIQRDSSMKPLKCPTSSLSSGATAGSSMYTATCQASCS
T3 sequence (P47871 26-477): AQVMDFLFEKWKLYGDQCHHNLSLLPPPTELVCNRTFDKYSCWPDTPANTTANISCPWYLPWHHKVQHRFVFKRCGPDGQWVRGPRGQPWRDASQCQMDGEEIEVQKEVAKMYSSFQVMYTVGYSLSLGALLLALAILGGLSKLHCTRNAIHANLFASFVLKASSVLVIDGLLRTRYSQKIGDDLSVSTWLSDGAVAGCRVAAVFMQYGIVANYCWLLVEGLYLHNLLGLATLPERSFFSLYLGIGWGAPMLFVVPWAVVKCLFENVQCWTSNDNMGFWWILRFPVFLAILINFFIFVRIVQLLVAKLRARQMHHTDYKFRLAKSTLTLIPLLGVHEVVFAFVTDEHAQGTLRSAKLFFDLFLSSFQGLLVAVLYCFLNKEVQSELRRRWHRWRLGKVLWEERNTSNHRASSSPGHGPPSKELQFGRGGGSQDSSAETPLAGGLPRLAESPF

Row | EC50 [1, 7] [nM] | EC50 [2, 8] [nM] | EC50 [3, 9] [nM] | EC50 [4, 10] [nM] | EC50 [5, 11] [nM] | EC50 [6, 12] [nM] | EC50 (rat GIP receptor (rGIPr); [13]) [nM] | EC50 ([1]; batch 1 unless a batch is given, read-out: cAMP activity hGLP1r (EC50)) [nM] | EC50 ([2]; batch 1 unless a batch is given, read-out: cAMP activity hGIPr (EC50)) [nM] | EC50 ([3]; batch 1 unless a batch is given, read-out: cAMP activity hGCGr (EC50)) [nM] | EC50 ([4]; read-out: cAMP activity mGLP1r (EC50)) [nM] | EC50 ([5]; read-out: cAMP activity mGIPr (EC50)) [nM] | EC50 ([6]; read-out: cAMP activity rGLP1r (EC50)) [nM] | EC50 (rat GIP receptor (rGIPr); read-out: cAMP activity rGIPr (EC50)) [nM] | Substance
1 | > 5480 | 0.0058 | 280 | > 2740 | 0.02 | > 2740 | 0.0067 |  |  |  |  |  |  |  | IP335 (YSEGTFISDYSIAMDKIHQQDFVNWLLAQKGGGGGSGGGGSGGGGSGGGGSA)
2 | 0.11 | 0.0084 | 25 | 1.2 | 6.6 | 0.031 | 0.06 |  |  |  |  |  |  |  | IP380: Fc fusion, IgG1-fusion, SEQ ID NO:376; agonist peptide YSEGTFTSDYSKLLEEEAVRLFIEFLLAGG (YSEGTFTSDYSKLLEEEAVRLFIEFLLAGGGGGGSGGGGSGGGGSGGGGSATHTCPPC)
3 | > 906 | 0.23 | 740 | > 906 | 15 | 450 | 0.88 |  |  |  |  |  |  |  | IP314: Fc fusion, IgG1-TM(ΔK), SEQ ID NO:431; agonist peptide YSEGTFISDYSKLLAAAAVRDFVNWLLAGG (YSEGTFISDYSKLLAAAAVRDFVNWLLAGGGGGGGSGGGGSGGGGSGGGGSATHTCPPC)
4 | 230 | 0.2 | > 4860 | > 4860 | 1.3 | 370 | 0.22 |  |  |  |  |  |  |  | IP368 (YSEGTFTSDYRQAIDRQAIDEFIAWLLKGGGGGGGSGGGGSGGGGSGGGGSACPPC)
5 | 1300 | 0.025 | ≥ 1500 | > 1520 | 0.17 | 700 | 0.09 |  |  |  |  |  |  |  | IP308 (YSEGTFISDYSIALAAAAAKDFVNWLLAGGGGGGGSGGGGSGGGGSGGGGSATHTCPPC)
6 | 0.061 | 0.011 | 43 | 0.2 | 8.3 | 0.04 | 0.039 |  |  |  |  |  |  |  | IP359: Fc fusion, IgG1-TM, SEQ ID NO:366; agonist peptide YSEGTFTSDYSKLLEEEAVRLFIEHLLAGG (YSEGTFTSDYSKLLEEEAVRLFIEHLLAGGGGGGSGGGGSGGGGSGGGGSATHTCPPC)
7 | ≥ 4500 | 0.05 | ≥ 4500 | > 4470 | 35 | > 4470 | 14 |  |  |  |  |  |  |  | IP318: Fc fusion, IgG1-TM(ΔK), SEQ ID NO:432; agonist peptide YSEGTFISDYSIAMDEEAVRDFVEWLKAGG (YSEGTFISDYSIAMDEEAVRDFVEWLKAGGGGGGGSGGGGSGGGGSGGGGSATHTCPPC)
8 |  |  |  |  |  |  |  | 3.4 | 0.01 | 240 | 6.8 | 0.44 | 0.23 | 0.02 | IP289: Fc fusion, IgG1-TM(ΔK), SEQ ID NO:342; agonist peptide YSEGTFTSDYSKLLEKEAERLFIEWLLKGP (YSEGTFTSDYSKLLEKEAERLFIEWLLKGPGGGGGSGGGGSGGGGSGGGGSATHTCPPC)
9 | 960 | 72 | > 2070 | > 2070 | 880 | 360 | 110 |  |  |  |  |  |  |  | IP343 (YSEGTFTSDYAAAAERQAIDAFAAWLAAAAGGGGGSGGGGSGGGGSGGGGSA)
10 | 0.12 | 0.012 | 380 | 3.8 | 3.3 | 0.016 | 0.063 |  |  |  |  |  |  |  | IP395 (YSEGTFTSDYSKLLERQAIDEFIAHLLKGGGGGGGSGGGGSGGGGSGGGGSACPPC)
11 | 75 | 4.7 | > 3560 | 670 | 43 | 23 | 5.1 |  |  |  |  |  |  |  | IP342 (YSEGTFTSDYSAAAEAAAAAAFAAWLAAAAGGGGGSGGGGSGGGGSGGGGSACPPC)
12 | 0.47 | 0.012 | > 1560 | 30 | 18 | 0.16 | 1.1 |  |  |  |  |  |  |  | IP385 (YSEGTFTSDYSIYLDRQAIDEFIAWLLKGGGGGGGSGGGGSGGGGSGGGGSACPPC)
